According to patent US20230287046A1, “MOLECULES TARGETING PROTEINS” (AELIN THERAPEUTICS, priority 2020, published 2023):
Where no end group is shown, it is not given here.

Tests used:
G12V mutant KRAS = molecular target: T1, G12V mutant KRAS (Homo sapiens, UniProt P01116, G12V); assay: In vitro translation assay with streptavidin pull-down, KRAS G12V; format: binding; settings: 10 μM biotinylated pept-in, Western blot
T1 construct: made in house; host or cells: cell-free: PURExpress In Vitro Protein Synthesis Kit (New England Biolabs)
Method: (§1) In vitro translation assays were performed using the PURExpress® In Vitro Protein Synthesis Kit (New England Biolabs) according to the manufacturer's instructions. Briefly, linear DNA fragments containing T7 promotor and terminator sequences flanking the KRAS coding sequence were generated using PCR and purified using the MinElute PCR Purification Kit (Qiagen). 250 ng of linear DNA was subsequently used for the in vitro translation reaction, which was performed for 2 hours at 37° C. with shaking (1000 rpm). Indicated biotinylated pept-ins were mixed in the translation reactions from a 5 mM stock solution in 6M Urea to a final concentration of 10 μM. Upon completion of the translation reaction, biotinylated pept-ins were captured from the reaction mix using Streptavidin coated beads (Pierce) during 90 min at room temperature. Beads were next washed with TBS containing 0.1% Tween 20 and bound proteins were finally boiled off in 1×SDS loading dye (Bio-Rad) in TBS buffer. Proteins were resolved using Any kD 15-well Mini-PROTEAN gels (Bio-Rad) during SDS-PAGE and probed for KRAS after Western blotting using a mouse monoclonal KRAS-specific antibody (SC-30, Santa Cruz Biotechnology), which was detected with an HRP-coupled anti-mouse secondary antibody using chemiluminescence on a Bio-Rad Chemidoc MP imaging instrument.
To mimic this in vitro, we devised an in vitro translation setup producing either wild-type or mutant KRAS (G12V, G12C, G12D or G13D) in the presence of biotinylated RAS-targeting pept-ins. This allowed us to perform a streptavidin pull-down to capture the biotinylated pept-ins from the translation reaction and perform SDS-PAGE and Western blotting to probe the pulled-down fraction for the presence of KRAS. The biotinylated version of pept-in 04-004-N001, i.e. 04-004-N011, which harbours an APR window sequence derived from a wild-type APR, is predicted to target all RAS proteins independently from their mutation status.

G12C mutant KRAS = molecular target: T2, G12C mutant KRAS (Homo sapiens, UniProt P01116, G12C); assay: In vitro translation assay with streptavidin pull-down, KRAS G12C; format: binding; settings: 10 μM biotinylated pept-in, Western blot
T2 construct: made in house; host or cells: cell-free: PURExpress In Vitro Protein Synthesis Kit (New England Biolabs)
Method: as §1, with “instrument. […]” for “instrument.”

[1] = system: SW620 human KRAS G12V colorectal cancer xenograft; assay: In vivo SW620 xenograft model; parameters: species or system mouse; settings: three times per week
Method: Female NCr nu/nu mice (8 to 12 weeks) were inoculated with 1×10^6 SW620 tumor cells in 50% Matrigel subcutaneously in the hind flank. The cell Injection Volume was 0.1 mL/mouse. When tumors reached an average size of 100-150 mm^3 a pair match was performed, and treatment started. Group sizes were N=6 for the non-treated group, N=5 for the vehicle groups and N=8 for the pept-in and positive control groups. Tumor growth was monitored by caliper measurement twice per week. Model response was monitored by Irinotecan dosed once per week at 100 mg/kg intraperitoneally for 3 weeks.
To assess whether the RAS-targeting pept-ins are able to attenuate growth of KRAS G12V-driven tumors in vivo, a subcutaneous xenograft model of human KRAS G12V colorectal cancer (SW620) was used. Once the tumors reached 100-150 mm^3 in size, pept-ins were administered directly into the tumor mass by intratumoral injection three times per week during two weeks at two different doses (20 μg and 200 μg).

[2] = molecular target: T3, KRAS of NCI-H441 lung adenocarcinoma cells (KRAS G12V mutant) (human, UniProt P01116 1-186); assay: cell-based or functional assay
[3] = molecular target: T3, KRAS of NCI-H441 lung adenocarcinoma …; assay: cell-based or functional assay; remark: listed apart in the source

Molecule	pull-down of KRAS G12V (G12V mutant KRAS)	Normalized viability NCI-H441 4 days of exposure to 25 µM (%) [2] [%]	IC50 on viability of adherently growing NCI-H441 cells (CellTiter Glo, 3 days) [3] [µM]	other results
04-006-N007: biotinylated version of a biologically active pept-in harbouring an APR window containing the G12V mutant site (04-006 series) (KVVVGAVKGSKVVVGAVK; also: biotinylated version)	notable pull-down was only observed for the G12V mutant KRAS	–	–	–
04-015-N026: biotinylated version of a biologically active pept-in harbouring an APR window containing the G12V mutant site (04-015 series) (KVVVGAVGKGSKVVVGAVGK; also: biotinylated version)	notable pull-down	–	–	pull-down of KRAS G12C (G12C mutant KRAS): notable pull-down
04-033-N003: biotinylated version of a biologically active pept-in harbouring an APR window containing the G12V mutant site (04-033 series) (KVVVGAVGVGKGSKVVVGAVGVGK; also: biotinylated version)	notable pull-down was only observed for the G12V mutant KRAS	–	–	–
CC(=O)N[C@@H](CCCCN)C(=O)N[C@H](C(=O)N[C@H](C(=O)N[C@H](C(=O)NCC(=O)N[C@@H](C)C(=O)N[C@H](C(=O)NCC(=O)N[C@@H](CCCCN)C(=O)NCC(=O)N[C@@H](CO)C(=O)N[C@@H](CCCCN)C(=O)N[C@H](C(=O)N[C@H](C(=O)N[C@H](C(=O)NCC(=O)N[C@@H](C)C(=O)N[C@H](C(=O)NCC(=O)N[C@@H](CCCCN)C(N)=O)C(C)C)C(C)C)C(C)C)C(C)C)C(C)C)C(C)C)C(C)C)C(C)C [04-015-N001]	–	–	–	reduction in average tumor volume at day 22 ([1]; 20 μg intratumoral): significant reduction in average tumor volume; reduction in average tumor volume at day 22 ([1]; 200 μg intratumoral): significant reduction in average tumor volume
Ac-KLSVFAIKGSKLSVFAIK-NH2 [04-004-N001]	–	–	–	reduction in average tumor volume at day 22 ([1]; 20 μg intratumoral): only significant for the 200 μg dosing group; reduction in average tumor volume at day 22 ([1]; 200 μg intratumoral): only significant for the 200 μg dosing group
Ac-KVVVGAVGKGSKVVVGAVGK-NH2 [04-015-N001]	–	23.3	~10	–
Ac-KVVVGAVGVGKGSKVVVGAVGVGK-NH2 [04-033-N001]	–	5.2	~10	–
Ac-KLSVFAIKGSKLSVFAIK-NH2 [04-004-N001]	–	6.1	~10	–
Ac-KLVVVGAVKGSKLVVVGAVK-NH2 [04-014-N001]	–	9.1	~10	–
Ac-KVVVGAVKGSKVVVGAVK-NH2 [04-006-N001]	–	8.7	~10	–
